The target of this test is Prebiotinylated FcγRI (Biotinylated Human CD64 Protein, His, Avitag) (human) (UniProt P12314). The test can be described thus: SPR; Biacore T200; biotinylated FcγRI immobilised on a streptavidin SA chip (F-chip); single-cycle kinetics, OPD injected at 90, 30, 10 nM, 120 s contact, 900 s dissociation; running buffer HBS-EP 1x pH 7.4; double-referenced; 1:1 Langmuir fit; mean ± SD, n = 3. Background: In SPR one partner is held on a chip, and binding of the other changes the refractive index at the surface.
Chain of UniProt P12314 (P12314 16-292): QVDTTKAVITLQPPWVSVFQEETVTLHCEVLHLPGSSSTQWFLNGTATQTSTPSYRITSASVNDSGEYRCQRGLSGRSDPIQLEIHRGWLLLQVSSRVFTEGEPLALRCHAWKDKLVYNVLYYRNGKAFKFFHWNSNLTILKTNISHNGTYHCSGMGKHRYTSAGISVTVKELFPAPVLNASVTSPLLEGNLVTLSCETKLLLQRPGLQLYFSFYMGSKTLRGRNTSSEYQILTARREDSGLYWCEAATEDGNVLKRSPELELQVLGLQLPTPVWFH

One may read the Kd as the equilibrium constant for the complex coming apart. The koff is the rate constant with which the complex falls apart. Low readings indicate a long-lived complex, high ones a short-lived complex. As a reminder, the kon is a measure of how fast the partners come together. As for nivolumab (antibody), the Kd worked out at 7.33 nM, the koff was 0.00093 s⁻¹ and the kon is 127000 M⁻¹ s⁻¹.

The record behind these values is publication PMC12809509.
